Starred links: 1 amine or outer side, 2 acyl side, 3 side chain; linkers in the order of their positions; H or OH if unused. Non-standard residues stand in square brackets, D forms with d. Groups on a side chain read outwards from the residue. No end group written: not given here. *: point of attachment. C18 diacid = O=C(O)CCCCCCCCCCCCCCCCC(=O)*; γGlu = O=C(O)[C@H](CCC(=O)[*:2])N[*:1]; AEEA = NCCOCCOCC(=O)O; Aib = CC(C)(N)C(=O)O

The source of these data is patent US12679878B2, “CRF2 receptor agonists and their use in therapy” (SANOFI, priority 2020, dated 2026).

The target of the assay is human corticotropin-releasing factor 2α (CRF2 α receptor) (human), Q13324. As to the kind of experiment: cell-based or functional assay.
human corticotropin-releasing factor 2α (CRF2 α receptor) (human), Q13324, sequence (Q13324 20-411): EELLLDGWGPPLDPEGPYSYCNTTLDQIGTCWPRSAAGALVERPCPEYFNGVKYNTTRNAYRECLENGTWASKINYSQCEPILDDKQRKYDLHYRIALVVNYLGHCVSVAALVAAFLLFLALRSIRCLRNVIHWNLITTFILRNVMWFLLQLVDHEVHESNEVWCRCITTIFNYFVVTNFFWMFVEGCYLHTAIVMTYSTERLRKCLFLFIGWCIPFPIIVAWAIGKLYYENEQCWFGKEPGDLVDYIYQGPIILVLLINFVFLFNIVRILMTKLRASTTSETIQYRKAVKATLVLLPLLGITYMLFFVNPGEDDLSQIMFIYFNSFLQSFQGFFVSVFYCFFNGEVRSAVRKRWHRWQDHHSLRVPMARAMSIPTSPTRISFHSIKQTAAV

B1: SEQ ID NO: 48 (peptide)
peptide: IVLSLDVPIKLK([AEEA-AEEA-γGlu-C18 diacid])QILLEQERQR[Aib]ERQQAETNVQILAQV-NH2
modifications: N-terminus assumed
SMILES: CC[C@H](C)[C@H](N)C(=O)N[C@H](C(=O)N[C@@H](CC(C)C)C(=O)N[C@@H](CO)C(=O)N[C@@H](CC(C)C)C(=O)N[C@@H](CC(=O)O)C(=O)N[C@H](C(=O)N1CCC[C@H]1C(=O)N[C@H](C(=O)N[C@@H](CCCCN)C(=O)N[C@@H](CC(C)C)C(=O)N[C@@H](CCCCNC(=O)COCCOCCNC(=O)COCCOCCNC(=O)CC[C@H](NC(=O)CCCCCCCCCCCCCCCCC(=O)O)C(=O)O)C(=O)N[C@@H](CCC(N)=O)C(=O)N[C@H](C(=O)N[C@@H](CC(C)C)C(=O)N[C@@H](CC(C)C)C(=O)N[C@@H](CCC(=O)O)C(=O)N[C@@H](CCC(N)=O)C(=O)N[C@@H](CCC(=O)O)C(=O)N[C@@H](CCCNC(=N)N)C(=O)N[C@@H](CCC(N)=O)C(=O)N[C@@H](CCCNC(=N)N)C(=O)NC(C)(C)C(=O)N[C@@H](CCC(=O)O)C(=O)N[C@@H](CCCNC(=N)N)C(=O)N[C@@H](CCC(N)=O)C(=O)N[C@@H](CCC(N)=O)C(=O)N[C@@H](C)C(=O)N[C@@H](CCC(=O)O)C(=O)N[C@H](C(=O)N[C@@H](CC(N)=O)C(=O)N[C@H](C(=O)N[C@@H](CCC(N)=O)C(=O)N[C@H](C(=O)N[C@@H](CC(C)C)C(=O)N[C@@H](C)C(=O)N[C@@H](CCC(N)=O)C(=O)N[C@H](C(N)=O)C(C)C)[C@@H](C)CC)C(C)C)[C@@H](C)O)[C@@H](C)CC)[C@@H](C)CC)C(C)C)C(C)C
In turn, B1 showed an EC50 [nM], 0% HSA of 2.2 nM.

B2: SEQ ID NO: 50 (peptide)
peptide: IVLSLDVPTKLK([AEEA-AEEA-γGlu-C18 diacid])QILLKQERQR[Aib]ERQQAETNVRILERV-NH2
modifications: N-terminus assumed
SMILES: CC[C@H](C)[C@H](N)C(=O)N[C@H](C(=O)N[C@@H](CC(C)C)C(=O)N[C@@H](CO)C(=O)N[C@@H](CC(C)C)C(=O)N[C@@H](CC(=O)O)C(=O)N[C@H](C(=O)N1CCC[C@H]1C(=O)N[C@H](C(=O)N[C@@H](CCCCN)C(=O)N[C@@H](CC(C)C)C(=O)N[C@@H](CCCCNC(=O)COCCOCCNC(=O)COCCOCCNC(=O)CC[C@H](NC(=O)CCCCCCCCCCCCCCCCC(=O)O)C(=O)O)C(=O)N[C@@H](CCC(N)=O)C(=O)N[C@H](C(=O)N[C@@H](CC(C)C)C(=O)N[C@@H](CC(C)C)C(=O)N[C@@H](CCCCN)C(=O)N[C@@H](CCC(N)=O)C(=O)N[C@@H](CCC(=O)O)C(=O)N[C@@H](CCCNC(=N)N)C(=O)N[C@@H](CCC(N)=O)C(=O)N[C@@H](CCCNC(=N)N)C(=O)NC(C)(C)C(=O)N[C@@H](CCC(=O)O)C(=O)N[C@@H](CCCNC(=N)N)C(=O)N[C@@H](CCC(N)=O)C(=O)N[C@@H](CCC(N)=O)C(=O)N[C@@H](C)C(=O)N[C@@H](CCC(=O)O)C(=O)N[C@H](C(=O)N[C@@H](CC(N)=O)C(=O)N[C@H](C(=O)N[C@@H](CCCNC(=N)N)C(=O)N[C@H](C(=O)N[C@@H](CC(C)C)C(=O)N[C@@H](CCC(=O)O)C(=O)N[C@@H](CCCNC(=N)N)C(=O)N[C@H](C(N)=O)C(C)C)[C@@H](C)CC)C(C)C)[C@@H](C)O)[C@@H](C)CC)[C@@H](C)O)C(C)C)C(C)C
B2 gave an EC50 [nM], 0% HSA of 17.2 nM.

B3: SEQ ID NO: 51 (peptide)
peptide: FTLSLDVPTKIK([AEEA-AEEA-γGlu-C18 diacid])QILLKQQKQKKERQQAEKNKQLLEQI-NH2
modifications: N-terminus assumed
SMILES: CC[C@H](C)[C@H](NC(=O)[C@H](CCC(N)=O)NC(=O)[C@H](CCC(=O)O)NC(=O)[C@H](CC(C)C)NC(=O)[C@H](CC(C)C)NC(=O)[C@H](CCC(N)=O)NC(=O)[C@H](CCCCN)NC(=O)[C@H](CC(N)=O)NC(=O)[C@H](CCCCN)NC(=O)[C@H](CCC(=O)O)NC(=O)[C@H](C)NC(=O)[C@H](CCC(N)=O)NC(=O)[C@H](CCC(N)=O)NC(=O)[C@H](CCCNC(=N)N)NC(=O)[C@H](CCC(=O)O)NC(=O)[C@H](CCCCN)NC(=O)[C@H](CCCCN)NC(=O)[C@H](CCC(N)=O)NC(=O)[C@H](CCCCN)NC(=O)[C@H](CCC(N)=O)NC(=O)[C@H](CCC(N)=O)NC(=O)[C@H](CCCCN)NC(=O)[C@H](CC(C)C)NC(=O)[C@H](CC(C)C)NC(=O)[C@@H](NC(=O)[C@H](CCC(N)=O)NC(=O)[C@H](CCCCNC(=O)COCCOCCNC(=O)COCCOCCNC(=O)CC[C@H](NC(=O)CCCCCCCCCCCCCCCCC(=O)O)C(=O)O)NC(=O)[C@@H](NC(=O)[C@H](CCCCN)NC(=O)[C@@H](NC(=O)[C@@H]1CCCN1C(=O)[C@@H](NC(=O)[C@H](CC(=O)O)NC(=O)[C@H](CC(C)C)NC(=O)[C@H](CO)NC(=O)[C@H](CC(C)C)NC(=O)[C@@H](NC(=O)[C@@H](N)Cc1ccccc1)[C@@H](C)O)C(C)C)[C@@H](C)O)[C@@H](C)CC)[C@@H](C)CC)C(N)=O
With B3, the EC50 [nM], 0% HSA amounted to 0.32 nM and the EC50 [nM], 0.1% HSA is 21.4 nM.

B4: SEQ ID NO: 49 (peptide)
peptide: IVLSLDVPIKLK([AEEA-AEEA-γGlu-C18 diacid])QILLEQERQR[Aib]ERQQAETNVRILERV-NH2
modifications: N-terminus assumed
SMILES: CC[C@H](C)[C@H](N)C(=O)N[C@H](C(=O)N[C@@H](CC(C)C)C(=O)N[C@@H](CO)C(=O)N[C@@H](CC(C)C)C(=O)N[C@@H](CC(=O)O)C(=O)N[C@H](C(=O)N1CCC[C@H]1C(=O)N[C@H](C(=O)N[C@@H](CCCCN)C(=O)N[C@@H](CC(C)C)C(=O)N[C@@H](CCCCNC(=O)COCCOCCNC(=O)COCCOCCNC(=O)CC[C@H](NC(=O)CCCCCCCCCCCCCCCCC(=O)O)C(=O)O)C(=O)N[C@@H](CCC(N)=O)C(=O)N[C@H](C(=O)N[C@@H](CC(C)C)C(=O)N[C@@H](CC(C)C)C(=O)N[C@@H](CCC(=O)O)C(=O)N[C@@H](CCC(N)=O)C(=O)N[C@@H](CCC(=O)O)C(=O)N[C@@H](CCCNC(=N)N)C(=O)N[C@@H](CCC(N)=O)C(=O)N[C@@H](CCCNC(=N)N)C(=O)NC(C)(C)C(=O)N[C@@H](CCC(=O)O)C(=O)N[C@@H](CCCNC(=N)N)C(=O)N[C@@H](CCC(N)=O)C(=O)N[C@@H](CCC(N)=O)C(=O)N[C@@H](C)C(=O)N[C@@H](CCC(=O)O)C(=O)N[C@H](C(=O)N[C@@H](CC(N)=O)C(=O)N[C@H](C(=O)N[C@@H](CCCNC(=N)N)C(=O)N[C@H](C(=O)N[C@@H](CC(C)C)C(=O)N[C@@H](CCC(=O)O)C(=O)N[C@@H](CCCNC(=N)N)C(=O)N[C@H](C(N)=O)C(C)C)[C@@H](C)CC)C(C)C)[C@@H](C)O)[C@@H](C)CC)[C@@H](C)CC)C(C)C)C(C)C
On to B4, for which the EC50 [nM], 0% HSA came to 12.7 nM.
